Assay results: publication PMC2670979

Assays:
GST-Miro1 WT = GST-Miro1 WT (UniProt Q8IXI2); assay: pull-down; as a5 but at 5 uM [Ca2+]free; band normalised to the level in 0 Ca2+
GST-Miro1 ΔEF = GST-Miro1 ΔEF (UniProt Q8IXI2); assay: as above
Chain of GST-Miro1 ΔEF (Q8IXI2 whole entry E208K/E328K): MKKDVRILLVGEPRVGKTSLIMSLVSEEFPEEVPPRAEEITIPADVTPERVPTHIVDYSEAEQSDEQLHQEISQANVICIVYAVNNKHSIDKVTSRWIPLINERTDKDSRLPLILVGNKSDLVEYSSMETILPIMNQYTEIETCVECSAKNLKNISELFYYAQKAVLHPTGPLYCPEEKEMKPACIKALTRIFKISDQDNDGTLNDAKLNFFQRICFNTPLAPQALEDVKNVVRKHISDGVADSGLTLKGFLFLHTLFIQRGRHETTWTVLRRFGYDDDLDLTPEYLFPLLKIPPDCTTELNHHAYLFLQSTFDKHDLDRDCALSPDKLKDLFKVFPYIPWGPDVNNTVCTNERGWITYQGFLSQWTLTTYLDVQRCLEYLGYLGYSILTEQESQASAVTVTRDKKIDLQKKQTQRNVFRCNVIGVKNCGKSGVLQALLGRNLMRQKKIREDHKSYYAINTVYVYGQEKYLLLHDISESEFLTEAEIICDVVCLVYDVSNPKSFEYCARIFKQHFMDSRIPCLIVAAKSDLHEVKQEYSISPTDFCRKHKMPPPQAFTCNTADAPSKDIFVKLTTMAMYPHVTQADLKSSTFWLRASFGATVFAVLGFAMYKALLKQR

Chain of KIF5 motors (endogenous, detected using a pan-KIF5 antibody) (Q2PQA9 whole entry): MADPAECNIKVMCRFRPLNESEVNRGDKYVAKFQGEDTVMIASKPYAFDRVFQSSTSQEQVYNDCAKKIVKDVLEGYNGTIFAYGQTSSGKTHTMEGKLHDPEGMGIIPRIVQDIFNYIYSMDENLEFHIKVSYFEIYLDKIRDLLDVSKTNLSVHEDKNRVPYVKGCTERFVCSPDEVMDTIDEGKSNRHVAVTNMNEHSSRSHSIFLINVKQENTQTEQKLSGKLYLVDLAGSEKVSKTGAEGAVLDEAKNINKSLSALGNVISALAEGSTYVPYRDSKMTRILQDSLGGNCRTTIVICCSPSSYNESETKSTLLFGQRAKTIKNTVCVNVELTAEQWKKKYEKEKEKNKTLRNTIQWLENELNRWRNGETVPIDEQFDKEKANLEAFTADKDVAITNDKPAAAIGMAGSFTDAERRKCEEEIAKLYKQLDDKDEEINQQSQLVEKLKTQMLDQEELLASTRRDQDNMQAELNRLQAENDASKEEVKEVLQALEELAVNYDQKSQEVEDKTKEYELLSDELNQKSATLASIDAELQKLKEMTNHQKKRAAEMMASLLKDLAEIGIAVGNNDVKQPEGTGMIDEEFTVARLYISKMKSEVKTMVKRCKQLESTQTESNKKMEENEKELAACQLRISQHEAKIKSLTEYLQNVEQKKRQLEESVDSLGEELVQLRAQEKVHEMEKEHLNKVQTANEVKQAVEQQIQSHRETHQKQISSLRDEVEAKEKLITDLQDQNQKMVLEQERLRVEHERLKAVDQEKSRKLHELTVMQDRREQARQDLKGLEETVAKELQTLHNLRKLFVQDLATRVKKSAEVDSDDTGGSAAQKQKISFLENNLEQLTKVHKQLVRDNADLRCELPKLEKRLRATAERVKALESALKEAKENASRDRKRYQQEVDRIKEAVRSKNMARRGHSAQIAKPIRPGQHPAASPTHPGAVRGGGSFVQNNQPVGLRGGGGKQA
Chain of GST-Miro1 WT (Q8IXI2 whole entry): as the sequence (Q8IXI2 whole entry E208K/E328K) above, with K208E, K328E counted along it

percent of the level in 0 [Ca2+], at 5 uM [Ca2+]free (GST-Miro1 WT): 15% | percent of the level in 0 [Ca2+], at 5 uM [Ca2+] (GST-Miro1 ΔEF): 87%
Substance: KIF5 motors (endogenous, detected using a pan-KIF5 antibody) (from UniProt Q2PQA9 1-963) (natural protein)
